Data reported in paper PMC8660775.

Target: T1, Adiponectin receptor 1 (ADIPOR1), endogenous in iPSC-derived RPE (human (endogenous in iPSC-derived RPE)) (UniProt Q96A54)
T1 sequence: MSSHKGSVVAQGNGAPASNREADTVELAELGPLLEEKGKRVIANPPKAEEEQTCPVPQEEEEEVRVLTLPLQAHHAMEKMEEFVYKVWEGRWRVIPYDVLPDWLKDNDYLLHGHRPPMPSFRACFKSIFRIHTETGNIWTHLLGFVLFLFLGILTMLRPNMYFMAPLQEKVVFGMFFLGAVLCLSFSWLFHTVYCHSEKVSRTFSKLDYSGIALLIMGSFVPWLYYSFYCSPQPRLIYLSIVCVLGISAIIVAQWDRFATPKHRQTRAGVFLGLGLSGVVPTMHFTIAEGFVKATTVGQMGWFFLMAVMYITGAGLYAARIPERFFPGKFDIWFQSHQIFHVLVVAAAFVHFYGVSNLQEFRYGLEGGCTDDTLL

## recombinant CTRP5 globular domain (domain or fragment)
  pAMPK (pT172) levels by ELISA in healthy-iRPE in serum-deprived medium, 0.2 µg/mL gCTRP5 for 30 min: 20 % decrease

B1: recombinant CTRP5 full length (ligand)
chain: SPPLDDNKIPSLCPGHPGLPGTPGHHGSQGLPGRDGRDGRDGAPGAPGEKGEGGRPGLPGPRGDPGPRGEAGPAGPTGPAGECSVPPRSAFSAKRSESRVPPPSDAPLPFDRVLVNEQGHYDAVTGKFTCQVPGVYYFAVHATVYRASLQFDLVKNGESIASFFQFFGGWPKPASLSGGAMVRLEPEDQVWVQVGVGDYIGIYASIKTDSTFSGFLVYSDWHSSPVFA
  pAMPK (pT172) levels by ELISA in healthy-iRPE in serum-free medium, recombinant full-length CTRP5 at 0.2, 2 and 25 µg/mL: 50 % reduction
